Reference: patent publication US20200299372A1 (ADRENOMED, published 2020)
Where two headings read alike, the source gives them in different places. Each block holds one binder with its values, some of them ahead of it. No end group written: not given here.

Key:
[1] = biological target: T1, human recombinant adrenomedullin receptor (CRLR + RAMP3) (human); assay: cell-based or functional assay
[2] = biological target: T1, human recombinant adrenomedullin …; assay: cell-based or functional assay; remark: listed apart in the source

T1 sequence (Q16602 whole entry, chain 1 of 2): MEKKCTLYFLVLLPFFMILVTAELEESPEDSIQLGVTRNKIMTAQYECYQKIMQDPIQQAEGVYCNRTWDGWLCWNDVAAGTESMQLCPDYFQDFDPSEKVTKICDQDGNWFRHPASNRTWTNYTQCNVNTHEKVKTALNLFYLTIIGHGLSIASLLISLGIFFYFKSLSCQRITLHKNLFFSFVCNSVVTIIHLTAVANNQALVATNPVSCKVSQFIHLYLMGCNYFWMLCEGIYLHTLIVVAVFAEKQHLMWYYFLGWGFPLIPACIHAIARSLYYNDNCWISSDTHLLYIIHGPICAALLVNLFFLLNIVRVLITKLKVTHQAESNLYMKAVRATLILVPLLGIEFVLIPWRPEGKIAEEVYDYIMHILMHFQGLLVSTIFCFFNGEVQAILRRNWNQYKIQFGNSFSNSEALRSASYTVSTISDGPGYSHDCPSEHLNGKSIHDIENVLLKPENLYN
T1 sequence (O60896 whole entry, chain 2 of 2, further chain): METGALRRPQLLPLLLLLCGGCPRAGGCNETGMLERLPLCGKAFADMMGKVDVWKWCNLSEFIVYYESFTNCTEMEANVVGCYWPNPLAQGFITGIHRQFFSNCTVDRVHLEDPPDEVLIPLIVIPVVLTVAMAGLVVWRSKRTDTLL

- EC50 (read off the curve) [1]: ~0.09 nM
Binder: YRQSMNQGSRSNGCRFGTCTFQKLAHQIYQLTDKDKDGMAPRNKISPQGY-NH2 (ends and bridges not checked) [Murine ADM 1-50]

- EC50 (read off the curve) [2]: ~1 nM
B1: mature human Adrenomedullin (Human ADM 1-52) (peptide)
peptide: YRQSMNNFQGLRSFGCRFGTCTVQKLAHQIYQFTDKDKDNVAPRSKISPQGY-NH2
modifications: ends and bridges not checked
